# According to paper PMC9736018:
# Target: T1, PA3973-His6 (Pseudomonas aeruginosa PAO1161) (UniProt Q9HX43)
# T1 sequence: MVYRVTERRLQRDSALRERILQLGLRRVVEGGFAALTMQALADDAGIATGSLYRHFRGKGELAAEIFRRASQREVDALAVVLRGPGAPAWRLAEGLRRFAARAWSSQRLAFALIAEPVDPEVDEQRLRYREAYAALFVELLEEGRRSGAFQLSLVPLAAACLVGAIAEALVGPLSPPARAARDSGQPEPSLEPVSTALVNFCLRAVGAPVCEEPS
# Experiment: EMSA
# Details: 10 mM Tris-HCl pH 8.5, 10 mM MgCl2, 100 mM KCl, 0.1 mg/mL BSA; ~100 ng DNA plus ~300 ng NS competitor in 20 uL; 23 C, 30 min; 1.5% agarose, 0.5x TBE, 4 C …
row,Sequence,binding
1,GCGAATTCGCATGCGGCGCTGGAGATTCCCGGCGAGGGCGCGGTGGGCATGTGCTGGCGCGACGAACCGCACCGCGACCGTGCCAGCGAAGACCTGCTGGCCTGCCTGCGCGAAGGCGCGGCGGCCGAGTAGGGCGCCGGCCGGCGGGTGCTATTGCAAAAAGGCCGCGGCTTCTCGACAATGCGATTCATTATCATTCATGTGTCGCCCCGACTTTCCCATGGGATCCGC (double strand) [PA2468p],binds more weakly
2,GAGGATCCGGGGCGGGCTCCGGAGGGTGTTCAGCTCCTAGCATAGCGCCCTCGCCTTGCGCCGTTCAGACCTTCGCGCAGCGCCCCTCGCGGCCGCGCGCCAGTTCCCTGTTGTCCTGGTCGTAGAGCTTCGCCCAGGGACGGAAGCCGATGTGCCCGGCCTCCAGGCGGTAGCGCTGGCCGGCGCTGAAGTCCTTGAACTTGAGGTTGAGCTGGCAATCGCGCCAGAGCGGGCTGTCCACGGGGCCGGCATGCGAATTCGC (double strand) [PA0061p],binds
3,GAGAATTCGCATGCCAATGGCGGCGAGGAAAGCGCCTGCGGCTGGTGCCGTGACAAGTGGGGCATCTCCTGGCAGATCACCCCGCGCGTACTCAGCGAAGCCATCGCCAGCCCCGACCGCGCGGCGGCCAGGCGCGCCTTCGAGGCGATGATGACGATGGGCAGGATCGATATCGCCACCATAGAGAAGGCCTTCAAGGGCTGAACGCCCCAACGCCTTGCAAAGGAGTCACGAAGGATCCGC (double strand) [PA2722p],binds
4,GAGGATCCGTGGGACTCCTTGGGTCGGGCCGGTGGCGAATAGCCAGGGGGACGTCGGGCGCACAAGGTACTGCCAGAAAAACGCTAATGCAAATAATTATCAAATGGATTCAGATATGCGTTTTGTGGCAAAGTTCACCTGTTTTTGCGCGTAGCGCGACCGAACCGGATATGCCCGAGGAACCGTCGATGAGCAGCACTCCCAGCCTTTCCCATTCCCCTGCCGAGCGCATGCGAATTCGC (double strand) [PA4710p],binds more weakly
5,GCGAATTCGCATGCCACCACGGTTGATCCATAGGCTTCGGTCCGCGCTGCGGTGGCGCGGGCGGCGCCCATGATACCGATTCCCCGGGGCGGTGGGGCGCCGCGGAAGGGACGGGCGTAGGAGATTTCATATTTCGCAATGAGGAATCTATTCCCCATTGAGGAATGTTCTGGTGGCGTGATAGCCTGAATGGAAAAGAGAGTCATTCCCATTTGGAGAAGATCCTGGATCCGC (double strand) [PA4156p],binds more weakly
6,GCGAATTCGCATGCGATGGGCGGGAATTGTTGGTCGATTTATGACTTGTAGTTTCTCTGTCGTATGCCTTCAGAACTTGTTGAAGGCTTTTCGGCTCGATTGCACAATGCCGCGCCAAGGTTCGTTCGCGAATCGCGGTATGTGAGCTAGACCTCCGCAGCCGGTGCGCCATCCGCAGTGCCCCGGACTACTCGACAATCACGCAGGAGATTCGTGAGGATCCGC (double strand) [PA0195p],binds
